Measured values as given in article PMC9531181.

Target: covalently linked hexamer of ClpX-ΔN with a single biotinylation site (ClpX6B)
Test: single-molecule TIRF microscopy (dwell time); ClpX6B (10 nM, preincubated with 2 mM ATP) held by streptavidin on biotinylated BSA on DDS-Tween-20 passivated coverslips; 5 nM of ssrA (Cy3) and ssrADD (Cy5) substrates flowed in with 100 uM MTX, 2 mM ATP, 25 ug/ml BSA, Trolox and oxygen scavenger; ClpX reaction buffer (25 mM Hepes pH 7.4, 100 mM KCl, 20 mM MgCl2, 10% glycerol); 30 °C; dwell times fitted with a single exponential

- reduction of dwell time against Ref11: 50%
Substance: cpGFP::DHFR::polyG11::ssrA, MTX-bound
